US20150139990A1 (DAINIPPON SUMITOMO PHARMA, published 2015)

How the values were obtained:
[1] = biological target: T1, human CD81 on CD81-expressing cells (Jurkat E6.1, human PBMC, Ramos) (human, UniProt P60033 1-236); assay: cell-based or functional assay
T1 sequence: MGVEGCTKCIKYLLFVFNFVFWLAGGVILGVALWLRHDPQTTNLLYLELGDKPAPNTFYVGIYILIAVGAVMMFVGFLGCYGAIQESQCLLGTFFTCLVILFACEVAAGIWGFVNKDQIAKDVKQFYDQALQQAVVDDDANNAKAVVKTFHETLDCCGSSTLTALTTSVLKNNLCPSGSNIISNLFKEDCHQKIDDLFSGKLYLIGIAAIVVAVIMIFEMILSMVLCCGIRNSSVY

[2] = biological target: T2, human CD81 mutant L165A (human, UniProt P60033 1-236, limits assumed); assay: ELISA
T2 construct: as m30; not shown: C-terminal V5 and 6xHis tags
T2 sequence: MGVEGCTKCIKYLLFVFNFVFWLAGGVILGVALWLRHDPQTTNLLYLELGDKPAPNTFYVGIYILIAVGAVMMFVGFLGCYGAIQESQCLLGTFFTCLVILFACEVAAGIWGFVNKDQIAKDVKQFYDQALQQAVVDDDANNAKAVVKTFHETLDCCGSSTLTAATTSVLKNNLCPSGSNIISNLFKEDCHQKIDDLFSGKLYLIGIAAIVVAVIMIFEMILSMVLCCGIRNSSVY

[3] = biological target: T3, human CD81 mutant A164T (human, UniProt P60033 1-236, limits assumed); assay: ELISA
T3 construct: as m30; not shown: C-terminal V5 and 6xHis tags
T3 sequence: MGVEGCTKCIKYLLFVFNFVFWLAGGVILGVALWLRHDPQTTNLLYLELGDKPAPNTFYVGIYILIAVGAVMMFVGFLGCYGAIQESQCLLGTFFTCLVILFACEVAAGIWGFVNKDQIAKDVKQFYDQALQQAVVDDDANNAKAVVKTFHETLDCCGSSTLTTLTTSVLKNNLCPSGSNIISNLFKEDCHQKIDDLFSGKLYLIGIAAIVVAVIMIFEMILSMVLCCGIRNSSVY

[4] = biological target: T4, human CD81 mutant V169A (human, UniProt P60033 1-236, limits assumed); assay: ELISA
T4 construct: as m30; not shown: C-terminal V5 and 6xHis tags
T4 sequence: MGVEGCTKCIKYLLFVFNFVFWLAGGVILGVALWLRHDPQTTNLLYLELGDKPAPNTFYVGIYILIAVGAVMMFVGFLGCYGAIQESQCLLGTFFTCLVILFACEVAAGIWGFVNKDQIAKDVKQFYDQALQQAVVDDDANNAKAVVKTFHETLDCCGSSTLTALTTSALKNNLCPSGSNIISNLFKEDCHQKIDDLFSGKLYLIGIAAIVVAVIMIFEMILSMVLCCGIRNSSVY

[5] = biological target: T5, human CD81 mutant V135A (human, UniProt P60033 1-236, limits assumed); assay: ELISA
T5 construct: as m30; not shown: C-terminal V5 and 6xHis tags
T5 sequence: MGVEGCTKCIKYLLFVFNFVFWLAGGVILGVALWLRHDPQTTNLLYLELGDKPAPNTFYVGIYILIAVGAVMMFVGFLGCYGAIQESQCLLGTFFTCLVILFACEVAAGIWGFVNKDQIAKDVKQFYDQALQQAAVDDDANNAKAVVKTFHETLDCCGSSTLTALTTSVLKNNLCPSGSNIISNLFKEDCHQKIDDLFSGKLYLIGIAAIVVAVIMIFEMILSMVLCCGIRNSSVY

[6] = biological target: T6, human CD81 mutant S168T (human, UniProt P60033 1-236, limits assumed); assay: ELISA
T6 construct: as m30; not shown: C-terminal V5 and 6xHis tags
T6 sequence: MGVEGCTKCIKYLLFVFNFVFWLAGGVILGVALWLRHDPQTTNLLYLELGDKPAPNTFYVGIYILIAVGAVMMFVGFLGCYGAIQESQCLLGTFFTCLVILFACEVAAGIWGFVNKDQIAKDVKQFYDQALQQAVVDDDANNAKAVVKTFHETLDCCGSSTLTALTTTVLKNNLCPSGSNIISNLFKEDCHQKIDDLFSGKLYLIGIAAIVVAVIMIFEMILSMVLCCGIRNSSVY

[7] = biological target: T7, human CD81 mutant A164V (human, UniProt P60033 1-236, limits assumed); assay: ELISA
T7 construct: as m30; not shown: C-terminal V5 and 6xHis tags
T7 sequence: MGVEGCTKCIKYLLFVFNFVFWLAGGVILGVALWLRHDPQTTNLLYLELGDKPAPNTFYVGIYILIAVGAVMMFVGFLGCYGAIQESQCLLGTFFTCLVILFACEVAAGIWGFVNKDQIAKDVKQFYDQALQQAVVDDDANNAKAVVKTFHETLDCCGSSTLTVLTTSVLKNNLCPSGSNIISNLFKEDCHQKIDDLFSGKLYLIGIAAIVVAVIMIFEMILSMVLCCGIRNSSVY

[8] = biological target: T8, human CD81 mutant V169L (human, UniProt P60033 1-236, limits assumed); assay: ELISA
T8 construct: as m30; not shown: C-terminal V5 and 6xHis tags
T8 sequence: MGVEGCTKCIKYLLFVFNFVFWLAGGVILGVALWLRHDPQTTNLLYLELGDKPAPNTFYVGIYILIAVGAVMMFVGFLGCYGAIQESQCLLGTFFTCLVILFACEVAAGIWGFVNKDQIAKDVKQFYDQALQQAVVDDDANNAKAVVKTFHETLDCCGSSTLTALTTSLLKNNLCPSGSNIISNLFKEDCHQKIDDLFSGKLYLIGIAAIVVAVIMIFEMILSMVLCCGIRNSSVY

[9] = biological target: T9, human CD81 mutant G158S (human, UniProt P60033 1-236, limits assumed); assay: ELISA
T9 construct: as m30; not shown: C-terminal V5 and 6xHis tags
T9 sequence: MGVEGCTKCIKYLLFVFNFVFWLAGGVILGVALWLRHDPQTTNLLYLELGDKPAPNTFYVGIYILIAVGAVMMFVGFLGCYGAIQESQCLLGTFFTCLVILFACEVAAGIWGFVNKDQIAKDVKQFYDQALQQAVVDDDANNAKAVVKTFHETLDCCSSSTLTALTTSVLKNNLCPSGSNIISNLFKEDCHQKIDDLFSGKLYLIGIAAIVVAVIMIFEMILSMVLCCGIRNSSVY

[10] = biological target: T10, human CD81 mutant D137A (human, UniProt P60033 1-236, limits assumed); assay: ELISA
T10 construct: as m30; not shown: C-terminal V5 and 6xHis tags
T10 sequence: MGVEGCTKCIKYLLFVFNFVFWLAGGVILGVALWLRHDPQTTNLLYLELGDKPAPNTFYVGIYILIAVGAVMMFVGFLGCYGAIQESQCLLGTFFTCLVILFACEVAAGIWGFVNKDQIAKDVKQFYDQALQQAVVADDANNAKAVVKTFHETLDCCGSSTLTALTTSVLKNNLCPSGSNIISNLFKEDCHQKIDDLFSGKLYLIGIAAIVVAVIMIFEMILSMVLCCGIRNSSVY

[11] = biological target: T11, human CD81 mutant H151R (human, UniProt P60033 1-236, limits assumed); assay: ELISA
T11 construct: as m30; also called H151B; not shown: C-terminal V5 and 6xHis tags
T11 sequence: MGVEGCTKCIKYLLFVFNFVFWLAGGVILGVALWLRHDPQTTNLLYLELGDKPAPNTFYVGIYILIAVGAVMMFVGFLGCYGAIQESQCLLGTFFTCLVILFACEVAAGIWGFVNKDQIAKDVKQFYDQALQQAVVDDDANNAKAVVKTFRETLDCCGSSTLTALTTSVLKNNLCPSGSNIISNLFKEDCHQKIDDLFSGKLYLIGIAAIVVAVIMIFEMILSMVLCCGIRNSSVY

[12] = biological target: T12, human CD81 mutant V135L (human, UniProt P60033 1-236, limits assumed); assay: ELISA
T12 construct: as m30; not shown: C-terminal V5 and 6xHis tags
T12 sequence: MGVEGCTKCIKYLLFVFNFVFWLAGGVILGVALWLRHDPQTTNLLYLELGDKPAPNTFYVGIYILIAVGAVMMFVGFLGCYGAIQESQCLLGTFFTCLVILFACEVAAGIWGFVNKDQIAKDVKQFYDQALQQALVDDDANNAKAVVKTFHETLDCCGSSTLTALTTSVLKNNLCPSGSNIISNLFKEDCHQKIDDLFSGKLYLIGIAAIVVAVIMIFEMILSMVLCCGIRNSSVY

[13] = biological target: T13, human CD81 mutant I194A (human, UniProt P60033 1-236, limits assumed); assay: ELISA
T13 construct: as m30; not shown: C-terminal V5 and 6xHis tags
T13 sequence: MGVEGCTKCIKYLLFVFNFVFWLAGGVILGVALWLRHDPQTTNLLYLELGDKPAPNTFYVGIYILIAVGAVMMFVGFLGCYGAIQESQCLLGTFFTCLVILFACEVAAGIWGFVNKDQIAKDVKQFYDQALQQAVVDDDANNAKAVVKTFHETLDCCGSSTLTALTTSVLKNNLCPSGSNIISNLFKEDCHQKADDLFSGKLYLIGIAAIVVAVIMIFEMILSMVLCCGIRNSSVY

Binder | Jurkat chemotaxis (% of control IgG4) at 0.001 µg/mL [1] [%] | Jurkat chemotaxis (% of control IgG4) at 0.01 µg/mL [1] [%] | Jurkat chemotaxis (% of control IgG4) at 0.1 µg/mL [1] [%] | Jurkat chemotaxis (% of control IgG4) at 1 µg/mL [1] [%] | Jurkat chemotaxis (% of control IgG4) at 10 µg/mL [1] [%] | relative binding affinity [2] [%] | relative binding affinity [3] [%] | relative binding affinity [4] [%] | relative binding affinity [5] [%] | relative binding affinity [6] [%] | relative binding affinity [7] [%] | relative binding affinity [8] [%] | relative binding affinity [9] [%] | relative binding affinity [10] [%] | relative binding affinity [11] [%] | relative binding affinity [12] [%] | relative binding affinity [13] [%]
002-A07 S115N (antibody, human IgG4 S228P, lambda, V domains shown, IgG4 S228P; glycosylation site mutant of 002-A07 VL) VH: EVQLLESGGGLVQPGGSLRLSCAASGFTFSSNYMSWVRQAPGKGLEWVSYISSSSTYTDYADSVKGRFTISRDNSKNTLYLQMNSLRAEDTAVYYCARYSYGRDNFDYWGQGTLVTVSS VL: QSVLTQPPSASGTPGQRVTISCTGSTSNIGAGYDTHWYQQLPGTAPKLLIYGNSNRPSGVPDRFSGSKSGTSASLAISGLRSEDEADYYCQSYDTNLNVWVFGGGTKLTVLG | 79 | 69 | -4 | -11 | -9 | < 20 | < 20 | < 20 | < 20 | < 20 | < 20 | < 20 |  |  |  |  | 
002-B05 (antibody, human IgG4 S228P, lambda, V domains shown, IgG4 S228P) VH: EVQLLESGGGLVQPGGSLRLSCAASGFTFSSNYMSWVRQAPGKGLEWVSYISSSSTYTDYADSVKGRFTISRDNSKNTLYLQMNSLRAEDTAVYYCARYSYSRDNFDYWGQGTLVTVSS VL: QSVLTQPPSASGTPGQRVTISCTGSTSNIGAGYGTHWYQRLPGTAPKLLIYGNSNRPSGVPDRFSGSKSGTSASLAISGLRSEDEADYYCQSYDTNLSVWVFGGGTKLTVLG | 84 | 78 | 10 | -1 | -10 | < 20 | < 20 | < 20 | < 20 |  | < 20 | < 20 | < 20 | < 20 | < 20 | < 20 | 
002-F07 (antibody, human IgG4 S228P, lambda, V domains shown, IgG4 S228P) VH: EVQLLESGGGLVQPGGSLRLSCAASGFTFSSNYMSWVRQAPGKGLEWVSYISSSSTYTDYADSVKGRFTISRDNSKNTLYLQMNSLRAEDTAVYYCARYSYGRDSFDYWGQGTLVTVSS VL: QSVLTQPFSASGTPGQRVTISCTGSTSNIGAGFDTHWYQQLPGTAPKLLIYGNSNRPSGVPDRFSGSKSGTTASLAISGLRSEDEADYYCQSYDTNLSVWVFGGGTKLTVLG | 101 | 88 | 38 | 13 | 15 | < 20 | < 20 | < 20 | < 20 |  | < 20 | < 20 |  |  |  |  | < 20
003-A11 (antibody, human IgG4 S228P, lambda, V domains shown, IgG4 S228P) VH: EVQLLESGGGLVQPGGSLRLSCAASGFTFGSNYMSWVRQAPGKGLEWVSYISSSSTYTDYADSVKGRFTISRDNSKNTLYLQMNSLRAEDTAVYYCARYSYGRDNFDYWGQGTLVTVSS VL: QSVLTQPPSASGTPGQRVTISCTGSTSNIGAGYDTHWYQQLPGTAPKLLIYGNSNRPSGVPDRFSGSKSGTSASLAISGLRSEDEADYYCQSYDTNLSGWVFGGGTKLTVLG | 91 | 86 | 16 | 1 | 2 | < 20 | < 20 | < 20 | < 20 |  | < 20 | < 20 |  |  |  |  | < 20
